B1: VG9B157 (antibody, human IgG1, lambda, V domains shown)
VH: EVQLLESGGGLVKPGASLKLSCAASGFTFSNHGMSWVRQTSDKRLEWVASITRGGDTTYYPDNVKGRFTISRENAKNTLYLQMSSLKSDDTALYYCTRGPLTVGYAMDYWGQGTTVTVSS
VL: SSELTQDPAVSVALGQTVRITCQGDSLRSYYATWYQQKPGQAPILVIYGENNRPSGIPDRFSGSRSGNTASLTITGAQAEDEADYYCNSRDTGDHHLVFGGGTKLTVLG
B2: VG9B68 (antibody, human IgG1, kappa, V domains shown)
VH: EVQLVESGAEVKKPGSSVKVSCKASGGTFSTYAISWVRQAPGQGLEWMGGIIPIFGTATYAQRFQDRVMITADKSTTTAYMELSSLRSEDTAVFYCARGVGWGSDYYYGLDVWGQGTMVTVSS
VL: EIVMTQSPLSSPVTLGQPASISCRSSQSLVHSDGNTYLSWLQQRPGQSPRLLIYKISNRFSGVPDRFSGSGAGTDFTLRITRVEPEDVGVYYCIQATHHPLTFGGGTRLEIKR
B3: VG9B194 (antibody, human IgG1, lambda, V domains shown)
VH: EVQLLESGAEVKKPGASVKVSCKASGYTFTGDYMHWVRQAPGQGLEWMGWINPNSGYTNNAEKFQGRVTMTRDTSISTAYMELSRLSSDDTAVYYCTRELDALDVWGQGTMVTVSS
VL: QSVLTQPPSASGSPGQSVTISCTGTSSDVGGYNYVSWYQQHPGKAPKLMIYEVSKRPSGVPDRFSGSKSGNTASLTVSGLQAEDEADYYCNSYAGSNNFEVFGGGTKVTVLG
B4: VG9B465 (antibody, human IgG1, lambda, V domains shown)
VH: QVQLQQSGPGLVKPSETLSLTCTVSGGSITSYYWNWIRQPAGKGLEWIGRIYTIGNTNYNPSLKSRVTMSIDTSKHQFSLKLSSVTGADTAVYYCAREGYYESDGSFFPGAFNIWGQGTMVTVSS
VL: SSELTQPASVSGSPGQSITISCTGTSNDVGSYNLVSWYQQHPGKAPKLMIYAGSKRPSGISNRFSGSKSGNTASLTISGLQAEDEADYYCCSYAGTTNVVFGGGTKVTVLG
B5: VG9B382 (antibody, human IgG1, lambda, V domains shown)
VH: QVQLQESGPGLVKPSETLSLTCTVSGDSISGYYWNYIRQPAGKGLDWIGRIFTTGNTNYNPSLKSRVTMSVDTSKNQFSLKLTSVTAADTAVYYCARERWDSSSSALYFDYWGQGTLVTVSS
VL: QSVLTQPPSVSGAPGQRVTISCTGSSSNIGADYDIKWYQQLPGTAPKLLIYGNSNRPSGVPDRFSGSKSGTSVSLAITGLQAEDEADYYCQSYDSSMSGYVVFGGGTKLTVLG
B6: VG9B86 (antibody, human IgG1, kappa, V domains shown)
VH: QVQLQESGPGLVKPSETLSLTCTVSGDSISSSYWSWIRQPAGKGLECIGRFYSSGSTSYNPSLKSRVTMAIDTSKNQFSLKLTSVTAADTAVYYCARYSGSYWYFDLWGRGTTVTVSS
VL: EIVLTQSPATLSLSPGERATLSCRASQSVSSYLAWYQQRPGQAPRLLIYDTSNRATGIPARFSGSGSGTDFTLTISSLAPEDFAVYYCQQRSDWLLTFGGGTKVEIKR
B7: VG9B430 (antibody, human IgG1, kappa, V domains shown)
VH: EVQLLESGGGLVKPGGSLRLSCSASGFTFSSYDMNWVRQAPGKGLEWVSSISSSSSYIYYADSVKGRFTISRDNAKNSLYLQMNSLRAEDTAVYHCARDVGVTTDYYYYGMDVWGQGTMVTVSS
VL: EIVLTQSPGTLSLSPGDRATLSCRASQSVASSYLAWYQQKPGQSPRLLIYGASSRATGIPDRFSGSGSGTDFTLTISRLEPEDFAVYYCQQYGSSPPYTFGQGTKLEIKR
B8: VG9B73 (antibody, human IgG1, kappa, V domains shown)
VH: EVQLVQSGGGLVKPGGSLRLSCAASGFTFSNYDMNWVRQAPGKGLEWVSSISSSSSYIYYADSVKGRFTISRDNARNSLFLQMSSLRAEDTAVYYCAREIGVTGTTYYQDYGMDVWGQGTTVTVSS
VL: B7 VL with L4M, D17E, V29F, A30S, S32N, S44A, V86L, Y98F, L106V
B9: VG9B472 (antibody, human IgG1, kappa, V domains shown)
VH: QVQLVESGGGLVKPGGSLRLSCAASGFTFSHYDMNWVRQAPGKGLEWVSSISSSSSYIFYADSVKGRFTISRDNAKNSLLLQMNSLRAEDTAVYHCARDRGVGDTSDYYSFGLDVWGQGTTVTVSS
VL: EIVLTQSPSSLSASVGDRVTITCRASQGIATYLAWYQQKPGKVPNLLIYAASTLQSGVPSRFSGSGSGTDFTLTISSLQPEDVATYYCQKYNSAPPWTFGQGTKVEIKR
B10: VG9B384 (antibody, human IgG1, lambda, V domains shown)
VH: QVQLQESGPALVKPTQTLTLTCTFSGFSLSSSGMCVSWIRQPPGKALEWLTLIDWFDDKYYSTSLKTRLTISKDTSKNQVVLTMTNMDPVDTATYYCARIRGTGAYYYGLDVWGQGTMVTVSS
VL: SYELMQPPSVSVSPGQTASITCSGNELGDKYASWYQQQPGQSPVLVIYQDNKRPSGIPERFSGSNSGNTATLTISGTQAMDEADYYCQAWDSSKVVFGGGTKLTVLG
B11: VG9B143 (antibody, human IgG1, lambda, V domains shown)
VH: EVQLVESGGGLVQPGGSLRLSCAASGFTFSTYGMNWVRQAPGKGLEWISYISTSSYTIYYSDSVKGRFTVSRDNAKNSLYLQMNSLRDEDTAVYYCAREGDWWYFDLWGRGTTVTVSS
VL: QSALTQPASVSGSPGQSITISCTGTSSDVGGYNYVSWYQQHPGKAPKLMIYEVSNRPSGVSYRFSGSKSGNTASLTISGLQAEDEADYYCSSYTSSSTLVFGGGTKLTVLG
B12: VG9B88 (antibody, human IgG1, kappa, V domains shown)
VH: EVQLVESGGGLVKPGGSLRLSCAVSGFTFSSYTMNWVRQAPGKGLEWVSSISTSSSYIDYADSVKGRFTISRDNAKKSLYLQMNSLRAEDTAVYYCARDGDMVAPIKGSFDYWGQGTLVTVSS
VL: EIVLTQSPLSLPVTPGEPASISCRSSQSLLNSDDGNTYLDWYLQKPGQSPQLLIYTLSYRASGVPDRFSGSGSGTDFTLKISRVEAEDVGVYYCMQRIEFPITFGQGTRLEIKR
B13: VG9B98 (antibody, human IgG1, kappa, V domains shown)
VH: EVQLVQSGGDLVKSGGSLRLSCAASGFTFSSYSMYWVRQAPGKGLEWVSSIGSSSTYIFYADSVKGRFTISRDNAMTSLYLQMNRLGAEDSAVYYCARDGELGPFEYWGQGTLVTVSS
VL: EIVLTQSPGTLSLSPGERATLSCRASQSVSTSYLAWFQQKPGQAPRLLIFGTSSRATGIPDRFSGSGSGTDFTLTISRLEPEDFAVYHCLQYGRSPLTFGGGTKVDIKR
B14: VG9B58 (antibody, human IgG1, kappa, V domains shown)
VH: QVQLQESGPGLVKPSETLSLTCTVSGGSIKSSYWTWIRQPPGKGLEWIGYMFYLGSTNYNPSLKSRVTMSIDTSRNQFSLKLSSVTAADTAVYYCSRERPVLDAFDIWGQGTMVTVSS
VL: DIQMTQSPSAMSASVGDRVTITCRASQDITNYLAWFQQKPGKVPKRLIYAASSLQGGVPSRFSGSGSGTEFTLTISSLQPEDFSTYYCLQHDTYPYTFGQGTKVDIKR

Where a chain is given by its changes, count along the chain named.

Experimental findings from patent US20220125947A1 are described below.

One assay has as its target Vg9/Vd2 T cell receptor on SKW3_4 cells (UniProt Q99603). As to the kind of experiment: flow cytometry, DRC binding 37 C, SKW3_4 cells expressing Vg9/Vd2. (In general: Flow cytometry measures light scatter and fluorescence of single cells or particles in a stream.)
Regarding B1, the Max. Activity (fold over background) turned out to be 11.
Still for that read-out and setting: with B2 the figure was 124.

For the next assay the target is unchanged. As to the kind of experiment: flow cytometry, DRC binding at 37°C on SKW3_4 cells expressing Vg9/Vd2.
Regarding B3, the Max. Activity (fold over background) is 151.
Same read-out and setting: then B4, with 148.
On the same count and under the same terms, with B5 the figure was 177; with B6, 138.

For the next assay, the target named is Vg9/Vd1 T cell receptor on SKW3 cells (UniProt Q99603). As to the kind of experiment: flow cytometry, DRC binding 37 C, SKW3 cells expressing Vg9/Vd1.
Chain of Vg9/Vd1 T cell receptor on SKW3 cells (Q99603 21-122): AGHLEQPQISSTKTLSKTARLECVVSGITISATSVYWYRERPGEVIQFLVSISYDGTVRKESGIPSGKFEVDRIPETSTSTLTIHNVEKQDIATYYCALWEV
Regarding B1, the Max. Activity (fold over background) is 0.96.
The same measure, in the same setting: then B2, with 2.08.

The target in a further assay is Vg5/Vd2 T cell receptor on SKW3 cells (UniProt A0JD36). As to the kind of experiment: flow cytometry, DRC binding at 37°C on SKW3 cells expressing Vg5/Vd2.
Chain of Vg5/Vd2 T cell receptor on SKW3 cells (A0JD36 20-115): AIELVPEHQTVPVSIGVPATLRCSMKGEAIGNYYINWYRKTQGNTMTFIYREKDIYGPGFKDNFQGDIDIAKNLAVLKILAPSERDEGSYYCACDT
For B3, the Max. Activity (fold over background) was determined as 148.
Still for that read-out and setting: with B4 the figure was 214.
Still for that read-out and setting: then B5, with 275; and B6, with 207.

The target in a further assay is Vg9/Vd1 T cell receptor on SKW3 cells (UniProt Q99603). As to the kind of experiment: flow cytometry, DRC binding at 37°C on SKW3 cells expressing Vg9/Vd1.
B3: the Max. Activity (fold over background) was determined as 6.29.
Still for that read-out and setting: with B4 the figure was 7.28.
Still for that read-out and setting: with B5 the figure was 1.04; with B6, 1.16.

The target of another assay is Vg5/Vd2 T cell receptor on SKW3 cells (UniProt A0JD36). The assay can be described thus: flow cytometry, dose-response binding at 37 C on SKW3 cells expressing Vg5/Vd2.
As for B7, the Max. Activity (fold over background) stood at 1.49.
The same measure, in the same setting: with B8 the figure was 1.79.
Same read-out and setting: then B9, with 2.22.
Same read-out and setting: with B10 the figure was 18.7; with B11, 1.07; with B12, 18.8.
Regarding B13, the Max. Activity (fold over background) came out at 2.47.
On the same count and under the same terms, then B14, with 1.49.

The target of a further assay is Vg9/Vd2 T cell receptor on SKW3_4 cells (UniProt Q99603). As to the kind of experiment: flow cytometry, dose-response binding at 37 C on SKW3_4 cells expressing Vg9/Vd2.
Chain of Vg9/Vd2 T cell receptor on SKW3_4 cells (Q99603 21-122, chain 1 of 2): as the sequence (Q99603 21-122) above
Chain of Vg9/Vd2 T cell receptor on SKW3_4 cells (A0JD36 20-115, chain 2 of 2, further chain): as the sequence (A0JD36 20-115) above
For B7, the Max. Activity (fold over background) is 143.
Still for that read-out and setting: then B8, with 118; and B9, with 171.
The same measure, in the same setting: with B10 the figure was 121.
Still for that read-out and setting: then B11, with 97.3; and B12, with 154; and B13, with 154.
Consider B14, for which the Max. Activity (fold over background) worked out at 160.

The next assay addresses Vg5/Vd2 T cell receptor on SKW3 cells (UniProt A0JD36). The assay can be described thus: flow cytometry, DRC binding 37 C, SKW3 cells expressing Vg5/Vd2.
Turning to B1, the Max. Activity (fold over background) turned out to be 11.7.
On the same count and under the same terms, then B2, with 207.

In the next assay the target is Vg9/Vd1 T cell receptor on SKW3 cells (UniProt Q99603). As to the kind of experiment: flow cytometry, dose-response binding at 37 C on SKW3 cells expressing Vg9/Vd1.
In the case of B7, the Max. Activity (fold over background) was found to be 325.
Still for that read-out and setting: with B8 the figure was 317; with B9, 328.
The same measure, in the same setting: then B10, with 290; and B11, with 241.
Same read-out and setting: then B12, with 346; and B13, with 344; and B14, with 350.
